Where no end group is shown, it is not given here. [ ]: non-standard residue; d: D form. Tyr(3-I) = N[C@@H](Cc1ccc(O)c(I)c1)C(=O)O
Columns and labels:
CEGPCR3 receptor = molecular target: T1, CEGPCR3 receptor (Caenorhabditis elegans, UniProt P90745); experiment: [35S]GTPγS binding assay, membranes of CHO cells transiently transfected with CEGPCR3; format: biochemical, C. elegans
T1 sequence (P90745 1-376): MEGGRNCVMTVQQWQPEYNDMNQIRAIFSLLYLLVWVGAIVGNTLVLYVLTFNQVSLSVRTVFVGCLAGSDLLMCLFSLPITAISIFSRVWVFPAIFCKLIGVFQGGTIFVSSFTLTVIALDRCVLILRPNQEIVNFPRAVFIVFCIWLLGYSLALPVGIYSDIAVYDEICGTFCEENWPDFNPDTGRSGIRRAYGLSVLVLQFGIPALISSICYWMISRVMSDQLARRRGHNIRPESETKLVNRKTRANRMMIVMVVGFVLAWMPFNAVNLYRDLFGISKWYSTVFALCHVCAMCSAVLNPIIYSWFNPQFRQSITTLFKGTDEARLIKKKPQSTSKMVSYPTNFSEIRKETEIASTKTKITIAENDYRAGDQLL
Experimental: (§1) Recombinant pCR3.1 clones encoding invertebrate GPCR-like receptors were transformed into wild-type CHO-K1 cells and functional expression was achieved using a temperature-shift incubation protocol. The CHO-K1 cells were cultured at 37° C. in a humidified atmosphere of 5% CO2 in air in DMEM medium supplemented with 10% heat-inactivated fetal bovine serum (i.e., FBS), 10 μg/ml gentamicin, and 0.1 mM nonessential amino acids to give complete DMEM medium. Additionally, for incubations at temperatures lower than 37° C., the medium was fortified with 10 mM HEPES (pH 7.4). Cells were transfected with recombinant pCR3.1 clones containing GPCR-like receptor DNAs, using LipofectAMINE PLUS™, essentially according to the manufacturer's instructions. […] In separate plastic tubes, PLUS (20 μl/plate; Life Technologies) was added to 0.75 ml/plate of recombinant plasmid DNA in OptiMEM (5 μg/plate; Gibco/BRL—Life Technologies), mixed and incubated at room temperature for 15 minutes. Separately, LipofectAMINE (30 μl/plate) was mixed with 0.75 ml OptiMEM and added to the pre-complexed DNA/PLUS mixture and incubated at room temperature for 15 minutes. The culture medium was then replaced with serum-free transfection medium (DMEM, 5 ml/plate). The DNA-PLUS-LipofectAMINE complex was then added to the plates (1.5 ml/plate) and mixed gently into the medium, followed by a 3 hour incubation at 37° C. in 5% CO2. At this time, the medium was supplemented with complete DMEM medium containing 20% FBS (6.5 ml/plate) and incubation was continued at 37° C. in 5% CO2. After a total of 24 hours at 37° C. in 5% CO2, the medium was replaced with complete DMEM medium fortified with 10 mM HEPES (10 ml/plate) and the cells were moved to an incubator maintained at 28-30° C. in a humidified atmosphere of 5% CO2 in air. The incubation continued for an additional 24 hours, typically at the lower temperature indicated above. A plasmid encoding Green Fluorescent Protein (i.e., GFP, 4 μg/plate) was used for transient GFP expression in CHO-K1 cells to estimate the transfection yields under the same conditions as used for GPCR-like receptor polynucleotides.
(§2) To assess expression, membranes were prepared from transfected CHO-K1 cells. Transfected cells were washed once with ice-cold Dulbecco's phosphate-buffered saline (i.e., PBS), 5 ml per 10 cm plate, and the cells were scraped into 5 ml of the same buffer. Cell suspensions from multiple plates were combined and centrifuged at 500×g for 10 minutes at 4° C. The cell pellet was reconstituted in ice-cold TEE (25 mM Tris, pH 7.4, 5 mM EGTA, 5 mM EDTA). Convenient aliquots were snap-frozen in liquid nitrogen and stored at −70° C. After thawing, the cells were homogenized and centrifuged at 500×g for 5 minutes at 4° C. to pellet nuclei and unbroken cells. Tile supernatant was centrifuged at 47,000×g for 30 minutes at 4° C. The membrane pellet was washed once with TEE, resuspended in 20 mM HEPES, pH 7.4, 100 mM NaCl, 10 mM MgCl2, 1 mM EDTA (assay buffer), distributed into aliquots of 0.5-1.0 ml, and frozen in liquid nitrogen. Membrane aliquots were stored at −70° C. Membrane protein concentration was determined using the BCA Protein Assay Reagent from Pierce (Rockford, Ill.), with bovine serum albumin (i.e., BSA) as a standard.
(§3) Aliquots of cell membranes prepared as described above and stored at −70° C. were thawed, homogenized, and diluted into buffer containing 20 mM HEPES, pH 7.4, 10 mM MgCl2, 1 mM EDTA, and 100 mM NaCl at a concentration of 10-50 μg/ml. Reaction mixtures were prepared in 96-well polypropylene plate, Nunc. Twenty microliters of a 10× putative modulator compound (including but not limited to potential peptide ligands) solution or a water control (20 μl), 18.2 µM GDP (0.11 ml, 10 μM final concentration), and a membrane preparation were mixed and placed on ice. The modulator/ligand-GDP-membrane mixtures were incubated for 20 minutes at room temperature on a shaking platform and then placed on ice.

CEGPCR12h receptor = molecular target: T2, CEGPCR12h receptor (Caenorhabditis elegans, UniProt Q20275); experiment: [35S]GTPγS binding assay, CEGPCR12h expressed in CHO cells; format: biochemical, C. elegans; details: Table 11; one range for the group; results apply to all CEGPCR12 isoforms; read-out: EC50 range
T2 sequence (Q20275 1-402): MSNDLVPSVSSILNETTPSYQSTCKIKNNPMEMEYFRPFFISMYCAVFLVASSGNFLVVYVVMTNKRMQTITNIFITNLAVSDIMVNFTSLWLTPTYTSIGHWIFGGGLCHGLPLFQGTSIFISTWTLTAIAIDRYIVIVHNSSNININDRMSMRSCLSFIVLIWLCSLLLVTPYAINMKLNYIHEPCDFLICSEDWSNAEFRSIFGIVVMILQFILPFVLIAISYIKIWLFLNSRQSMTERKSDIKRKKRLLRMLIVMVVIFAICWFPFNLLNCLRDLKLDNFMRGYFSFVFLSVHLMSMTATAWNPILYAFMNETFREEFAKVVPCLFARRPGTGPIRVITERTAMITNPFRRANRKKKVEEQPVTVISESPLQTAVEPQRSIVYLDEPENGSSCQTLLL
Experimental: as §1, §2, §3

CEGPCR5 = molecular target: T3, CEGPCR5 (Caenorhabditis elegans, UniProt Q18179); experiment: [35S]GTPγS binding assay, CEGPCR5 expressed in CHO cells; format: biochemical, C. elegans
T3 sequence (Q18179 1-402): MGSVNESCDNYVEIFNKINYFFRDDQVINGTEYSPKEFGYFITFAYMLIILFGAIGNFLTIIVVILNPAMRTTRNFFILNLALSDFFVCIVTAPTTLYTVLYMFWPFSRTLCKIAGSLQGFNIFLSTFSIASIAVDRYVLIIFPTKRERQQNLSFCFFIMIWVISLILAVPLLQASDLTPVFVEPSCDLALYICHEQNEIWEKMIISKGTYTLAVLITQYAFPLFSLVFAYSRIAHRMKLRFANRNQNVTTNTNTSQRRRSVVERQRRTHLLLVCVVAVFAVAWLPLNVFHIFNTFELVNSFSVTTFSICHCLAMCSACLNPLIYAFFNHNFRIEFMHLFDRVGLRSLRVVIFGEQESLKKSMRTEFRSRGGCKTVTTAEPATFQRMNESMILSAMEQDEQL
Experimental: as §1, §2, §3

CEGPCR4 [1] = molecular target: T4, CEGPCR4 (C. elegans); experiment: competition binding assay, CEGPCR4/CHO membranes; IC50 range printed once for block r9-r18
T4 construct: Expressed in CHO cells; also called CEGPCR4 receptor; CEGPCR4/CHO membranes
T4 chain: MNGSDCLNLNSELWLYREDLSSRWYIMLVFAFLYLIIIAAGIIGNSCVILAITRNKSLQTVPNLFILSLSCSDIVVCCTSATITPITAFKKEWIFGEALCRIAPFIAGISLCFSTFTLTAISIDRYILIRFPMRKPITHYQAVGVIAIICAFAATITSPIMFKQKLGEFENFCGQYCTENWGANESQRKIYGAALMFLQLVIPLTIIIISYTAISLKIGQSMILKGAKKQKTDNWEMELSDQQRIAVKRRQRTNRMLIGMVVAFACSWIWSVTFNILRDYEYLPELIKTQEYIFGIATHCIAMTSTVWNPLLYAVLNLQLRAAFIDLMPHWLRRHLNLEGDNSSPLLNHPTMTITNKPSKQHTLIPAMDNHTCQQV

CEGPCR4 [2] = molecular target: T4, CEGPCR4; experiment: competition binding assay, CEGPCR4/CHO membranes; IC50 range printed once for block r39-r54
CEGPCR4 [3] = molecular target: T4, CEGPCR4; experiment: competition binding assay, CEGPCR4/CHO membranes; IC50 range printed once for block r26-r35
[4] = EC50, single values, GTPγS assay
[5] = EC50 range, Table 7, one range for the group of peptides, cells 24 h 37° C. then 24 h 28° C.

Molecule: GGPQGPLRF-NH2 [GGPQGPLRF-NH2]
- EC50 (CEGPCR3 receptor; [4]): 152 nM
- EC50 (CEGPCR3 receptor; [5]): 150 to 400 nM
- EC50 (CEGPCR12h receptor): 1500 to 3000 nM

Molecule: GNSFLRF-NH2 [GNSFLRF-NH2]
- EC50 (CEGPCR3 receptor; [4]): 7900 nM
- EC50 (CEGPCR3 receptor; EC50 range, Table 7, cells 24 h 37° C. then 24 h 28° C.): ~8000 nM
- receptor activation by matched ligand (CEGPCR3 receptor; membranes from cells transfected and maintained at 37° C.): not detectably activated
- potency lower than that of the two C. elegans flp15 peptides (CEGPCR3 receptor; ratio of EC50 values): 19-52 fold
- ligand-induced [35S]GTPγS binding (CEGPCR3 receptor; temperature shift to 28° C. 24 hours after transfection): significant stimulation
- EC50 (CEGPCR5): 80 to 800 nM

Molecule: GPSGPLRF-NH2 [GPSGPLRF-NH2]
- EC50 (CEGPCR3 receptor; [4]): 422 nM
- EC50 (CEGPCR3 receptor; [5]): 150 to 400 nM

Molecule: ASPSFIRF-NH2 (flp4) [ASPSFIRF-NH2]
- binding result (CEGPCR4 [1]): binds

Molecule: KSVPGVLRF-NH2 (flp18) [KSVPGVLRF-NH2]
- binding result (CEGPCR4 [1]): binds

Molecule: DVPGVLRF-NH2 (flp18) [DVPGVLRF-NH2]
- binding result (CEGPCR4 [2]): binds

Molecule: SVPGVLRF-NH2 (flp18) [SVPGVLRF-NH2]
- binding result (CEGPCR4 [1]): binds

Molecule: YVPGVLRF-NH2 (synthetic) [Y-VPGVLRF-NH2]
- binding result (CEGPCR4 [2]): binds

Molecule: GGPQGPLRF-NH2 (flp15) [GGPQGPLRF-NH2]
- binding result (CEGPCR4 [3]): binds

Molecule: TNRNFLRF-NH2 [TNRNFLRF-NH2 (Lobster peptide II)]
- binding result (CEGPCR4 [3]): binds

B1: 3-Iodo-Y-GVLRF-NH2 (peptide)
peptide: [Tyr(3-I)]GVLRF-NH2
modifications: N-terminus assumed
SMILES: CC(C)C[C@H](NC(=O)[C@@H](NC(=O)CNC(=O)[C@@H](N)Cc1ccc(O)c(I)c1)C(C)C)C(=O)N[C@@H](CCCNC(=N)N)C(=O)N[C@@H](Cc1ccccc1)C(N)=O
notes: synthetic
- binding result (CEGPCR4 [2]): binds

Molecule: YDVPGVLRF-NH2 (synthetic) [Y-DVPGVLRF-NH2]
- binding result (CEGPCR4 [2]): binds

Molecule: EIPGVLRF-NH2 (flp18) [EIPGVLRF-NH2]
- binding result (CEGPCR4 [1]): binds

Molecule: SDNFMRF-NH2 [SDNFMRF-NH2]
- binding result (CEGPCR4 [3]): binds

Molecule: PDNFMRF-NH2 [PDNFMRF-NH2]
- binding result (CEGPCR4 [3]): binds

Molecule: SPLGTMRF-NH2 (flp3) [SPLGTMRF-NH2]
- binding result (CEGPCR4 [3]): binds

Molecule: DFDGAMPGVLRF-NH2 (flp18) [DFDGAMPGVLRF-NH2]
- binding result (CEGPCR4 [1]): binds

B2: NGAPQPFVRF-NH2 (peptide)
peptide: NGAPQPFVRF-NH2
notes: flp11 (species cell stands one row higher, r34c4)
- binding result (CEGPCR4 [3]): binds

Molecule: SAEPFGTMRF-NH2 (not fully specified; printed as SAEPFGTMRF-NH2, flp3) [SAEPFGTMRF-NH2]
- binding result (CEGPCR4 [3]): binds

B3: 3-Iodo-Y-VPGVLRF-NH2 (peptide)
peptide: [Tyr(3-I)]VPGVLRF-NH2
modifications: N-terminus assumed
SMILES: CC(C)C[C@H](NC(=O)[C@@H](NC(=O)CNC(=O)[C@@H]1CCCN1C(=O)[C@@H](NC(=O)[C@@H](N)Cc1ccc(O)c(I)c1)C(C)C)C(C)C)C(=O)N[C@@H](CCCNC(=N)N)C(=O)N[C@@H](Cc1ccccc1)C(N)=O
notes: synthetic
- binding result (CEGPCR4 [2]): binds

Molecule: SEVPGVLRF-NH2 (flp18) [SEVPGVLRF-NH2]
- binding result (CEGPCR4 [1]): binds

Molecule: EIVFHQISPIFFRF-NH2 (flp14 as printed) [EIVFHQISPIFFRF-NH2]
- binding result (CEGPCR4 [3]): binds
